Assay results taken from publication doi:10.1101/2023.05.25.542299.

Assays:
[1] = molecular target: FITC-labeled 45-mer peptide derived from the C-terminal region of IKKβ; experiment: fluorescence polarisation; fluorescence anisotropy binding assay with the FITC-labeled IKKβ 45-mer peptide and NEMO proteins; conditions not told (refs 13, 23)
[2] = molecular target: 45-mer peptide of IKKβ (as used in the CD experiments); experiment: circular dichroism (spectra and thermal denaturation with and without ligand); 10 µM NEMO protein with or without equimolar IKKβ 45-mer peptide, incubated 1 h at room temperature; 20 mM sodium phosphate, 500 mM NaCl, pH 7.4; spectra at 25 °C, melt 10 to 70 °C at 222 nm

full-length WT NEMO (aa 1–419), bacterially expressed, sequence (Q9Y6K9 whole entry, the tested form may be a part): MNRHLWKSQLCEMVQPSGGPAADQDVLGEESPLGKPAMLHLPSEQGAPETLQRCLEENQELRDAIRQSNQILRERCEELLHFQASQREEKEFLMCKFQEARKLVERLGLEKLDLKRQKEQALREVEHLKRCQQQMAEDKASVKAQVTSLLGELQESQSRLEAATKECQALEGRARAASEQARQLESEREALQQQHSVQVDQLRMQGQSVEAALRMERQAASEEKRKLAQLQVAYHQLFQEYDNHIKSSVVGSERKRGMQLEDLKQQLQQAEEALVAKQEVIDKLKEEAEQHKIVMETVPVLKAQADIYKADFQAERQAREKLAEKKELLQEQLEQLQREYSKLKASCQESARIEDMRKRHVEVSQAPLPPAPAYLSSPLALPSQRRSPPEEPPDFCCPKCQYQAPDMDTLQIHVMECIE

Kd [1] | increase in Tm with equimolar peptide [2] | Substance
33 nM | 5 °C | NEMO 1–419 OPTN-IVD, bacterially expressed (from UniProt Q9Y6K9 1-419) (natural protein)
4.7 nM | 3 °C | full-length WT NEMO (aa 1–419), bacterially expressed (from UniProt Q9Y6K9 1-419) (natural protein)
